The values that follow come from the nanobody polyreactivity screen of Harvey et al. (2022).

The data set is described as follows: yeast display, Sf9 membrane polyspecificity reagent, FACS + sequencing; frameworks hold sequencing errors. In a few lines: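 In a synthetic yeast display library (Saccharomyces cerevisiae BJ5465), nanobody expression was induced with galactose for 36–48 hours. FACS gates were set low and high (top ~1%) using anti-HA fluorescence for expression and streptavidin fluorescence for binding of the Sf9 membrane reagent. Each polyreactivity label is drawn from the gate of origin.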
For “QVQLVESGGGLVQAGGSLRISCAASGSTFWYYAMGWYRQAPGKERELVAVINSGGITNYADSVKGRFTISRDNAKNTVYLQMNSLKPEDTAVYYCNKRLYWGYGEMDYWGQGTQVTVSS”, the “polyreactivity (PSR sort gate)” value was “low polyreactivity”. For the sequence “QVQLVESGGGLVQAGGSLRISCAASGSTFYRNAMGWYRQAPGKERELVARISSRGGRTSYADSVKGRFTISRDNAKNNVYFQMNSLKPEDTAVYYCAADYYVNRIQRYDYWGQGTQVTVSS”, the “polyreactivity (PSR sort gate)” value is on record as “high polyreactivity”. The value for “QVQLVESGGGLVQAGGSLRISCAASGSTFYVNAMGWYRQAPGKERELVAAIDGGDTYYADSVKGRFTISRDNAKNTVYLQMNSLKPEDTAVYYCAAESLPEISVGLGYWGQGTQVTVSS” was “low polyreactivity”; that for “QVQLVESGGGLVQAGGSLRISCAASGTFGSNAMGWYRQAPGKERELVAAINSGGTTKYADSVKGRFTISRDNAKNTVYLQMNSLKPEDTAVYYCNAREGVFRYPVAHDYWGQGTQVTVSS” was “low polyreactivity”; that for “QVQLVESGGGLVQAGGSLRISCAPSGITFKDYAMGWYRQAPGKERELVAVISYSGGSTYYADTVKGRFTISRDNAKNTVYLQMNSLKPEDTAVYYCAARVGPEYDWGQGTQVTVSS” was “low polyreactivity”. The value for “QVQLVESGGGLVQAGGSLRISCAPSGRTFGINAMGWYRQAPGKERELVAVISFGDGGTYYADSVKGRFTISRDNAKNTVYLQMNSLKPEDTAVYYCATDYQSTSVWGGHFVINPYDYWGQGTQVTVSS” was “low polyreactivity”; that for “QVQLVESGGGLVQAGGSLRISCAPSGSTFYTNAMGWYRQAPGKEREFVAAISWSGSSTYADSVKGRFTISRDNAKNTVYLQMNSLKPEDTAVYYFAADWFKLRTDYYWGQGTQVTVSS” was “low polyreactivity”. The value for “QVQLVESGGGLVQAGGSLRISCASSGFTIWGYTMVWYRQAPGKERELVAAITSTGSTYYADSVKGRFTISRDNAKNTVYLQMNSLKPEDTAVYYCAAESYYGYDYWGQGTQVTVSS” was “low polyreactivity”; that for “QVQLVESGGGLVQAGGSLRISCSASGSIFTGYAMGWYRPAPGKERELVAAISNSGTSTYYADSVKGRFTISRDNANNTVYLQMNSLKPEDTAVYYCNTVGHRWLSDDDYWGQGTQVTVSS” was “low polyreactivity”; that for “QVQLVESGGGLVQAGGSLRISCVASARTFYRYAMGWYRQAPGKERELVAVITRGGSTYYADSVKGRFTISRDNAKNPVYLQMNSLKPEDTAVYFCNADGRVQRKYDYWGQGTQVTVSS” was “high polyreactivity”. Consider “QVQLVESGGGLVQAGGSLRISFAASGFFFARYAMGWYRQEPGKERELVAAISGSGARTYYADSVKGRFTNSRDNAKNTVYLQMNSLKPEDTAVYYCAVRGSWYSEHNYWGQGTQVTVSS”, for which the “polyreactivity (PSR sort gate)” value is recorded as “high polyreactivity”. “QVQLVESGGGLVQAGGSLRISSAASALIIYDNMGRYRQAPGKERELVAAISSSGGSTSYADSVKGRFTFSRDNANNTVYLQMNSLKPEDTAVYYSAADSYPAYLGFVGFDYWGQGTQVTVSS”: the “polyreactivity (PSR sort gate)” value was “low polyreactivity”.

Regarding “QVQLVESGGGLVQAGGSLRISSAASGPTFVPNAMGSYRQAPGKERELVATITSGGNTYYADSVKGRFTISRDNAKNTVYLQMNSLKPEDTAVYYCNRDWIYWGPRRNSGEYWGQGTQVTVSS”, the “polyreactivity (PSR sort gate)” value was “low polyreactivity”. Then “QVQLVESGGGLVQAGGSLRLCCAACGRIFYAYAMGWYRQAPGKERELVAAISSSGGRTYYADSVKGRFTISRDNAKNTVYLQMNSLKPEDTAVYYSAAVHYYKFEWGQRTQVTVSS”, with “high polyreactivity”; and “QVQLVESGGGLVQAGGSLRLCCAASGSTFYFYTMGWYRQAPGKERELVAAIRDSGSSTDYADSVKGRFTISRDNAKNTVYLQMNSLKPEATAVYYCAAEYNFPEFPWGGEYDYWGQGTQVTVSS”, with “low polyreactivity”. The value for “QVQLVESGGGLVQAGGSLRLCCAAYGRTFRGNAMRLYTQAPGKERELVAVITSGDSTYYADSVKGRFTNSRDNAKNTVYLQMNSLKPEDTAVYYCAAYLWKSKRKLDYWGQGTQVTVTS” was “high polyreactivity”.

Take “QVQLVESGGGLVQAGGSLRLGCAASGFTLWYYNIGWYRQAPGKERELVASISWSGGSTYYADSVKGRFTISRDNAKNTVYLQMNSLKPEDTALYYCNVQSYDRIYDYWGQGTQVTVSS”: the “polyreactivity (PSR sort gate)” value is on record as “high polyreactivity”.

Consider “QVQLVESGGGLVQAGGSLRLICAASAFNFRYYVMGWYRQAPGKERELVAVISYSGGSTYYADSVKGRFTISRDNAKNTVYLQRNSMKPEDTAVYYCDARYYVATSSIYYYWGQGTQVTVSS”, for which the “polyreactivity (PSR sort gate)” value is on record as “high polyreactivity”. The value for “QVQLVESGGGLVQAGGSLRLICAASAFTIRRYAMGWYRQARGKERELVAAINWNGDTTYYADSVKGRFTISSDNAKNTVYLQMNSLKPEDTAVYYCATSDYYYDYWGQGTQVTVSS” was “high polyreactivity”.

For “QVQLVESGGGLVQAGGSLRLICAASGFIFASYAMGWYRQSPGKEREFVAAITRRGGTTYYADSVNGRFTISRDNAKNTVYLQMNSLKPEDTAVYYCATAHSRPGYVFDYWGQGTQVTVSS”, the “polyreactivity (PSR sort gate)” value is “high polyreactivity”. “QVQLVESGGGLVQAGGSLRLICAASGFIFAWYAMGWYRQAPGKERELVAAITSGGRTYYADSVKGRFTISRDNAKNTVYLQMNSMKPEDTAVYYCATDAVDSHRPYKYGPQSGSWGQGTQVTVSS”: the “polyreactivity (PSR sort gate)” value is “high polyreactivity”. In the case of “QVQLVESGGGLVQAGGSLRLICAASGFIFGAYTMGWYRQAPGKERELVADISRRGGTTYYADSVKGRFTISRDNAKNTVYLQMISLKPEDTAVYYCAKVANFWYITTLRGYYYWGQGTQVTVSS”, the “polyreactivity (PSR sort gate)” value is “high polyreactivity”.

On to “QVQLVESGGGLVQAGGSLRLICAASGFIFRVYAMGWYRQAPGKERALVATITYDGGRTYYADSVKGRFTISRDNAKNTVYLQMNSLKPEDTAVFGYWGQGTQVTVSS”, for which the “polyreactivity (PSR sort gate)” value was “low polyreactivity”. The value for “QVQLVESGGGLVQAGGSLRLICAASGFIFYGNAMGWYRQAPGKERELVAAISSSGGSTYYADSVKGRFTISRDNAKNTVYLQMNSLKPEDTAVYYCNKYYLVKGPYDWGQGTQVTVSS” was “high polyreactivity”; that for “QVQLVESGGGLVQAGGSLRLICAASGFIITGNAMGWYRQAPGKERELVAAITSGGNTYYADSVKGRFTISRDNAKNTVYLQMISMKPEDTAVYYCAKYGPHWRILMEYWGQGTQVTVSS” was “low polyreactivity”. For the sequence “QVQLVESGGGLVQAGGSLRLICAASGFTFDENAMGWYRQAPGINYSGASTYYADSVKGRFTISRDNAKNTVYLQMISLKPEDTAVYYCAADYETGAVSILDDYWGQGTQVTVSS”, the “polyreactivity (PSR sort gate)” value was “low polyreactivity”. Then “QVQLVESGGGLVQAGGSLRLICAASGFTFGEYAMGWYRKAPGKERELVAGISWSGGGTYYADSVKGRFTISRDTAKNTVYLQMNCLKPEDTAVYYCAKAGYYFFQQWQVDYWGQGTQVTVSS”, with “low polyreactivity”; and “QVQLVESGGGLVQAGGSLRLICAASGFTFGGYAMGWYRPAPVKERELVAAINGNGGRTYSADSVKGRFTISRDKAKNTVYLQMISLKPEDTAVYYCYAAYRQHYRYYYWGQGTQVTVSS”, with “high polyreactivity”. Take “QVQLVESGGGLVQAGGSLRLICAASGFTFPPYAMGGYRQAPGKERELVAAITSSGGRTYYAYSVKGRFTISRDNAKNTVYLQMNSLKPEDTAFYYCAAYGRFARMNYWGQGTQVTVSS”: the “polyreactivity (PSR sort gate)” value was “high polyreactivity”. “QVQLVESGGGLVQAGGSLRLICAASGFTFPVYARGWYRQAPGKERELVAAISSSGGTTYYADSVKGRFTISRDNAKNTVYLQMISLKPEDTAVYYCNAYYGSTAYGYDYWGQGTQVTVSS”: the “polyreactivity (PSR sort gate)” value is given as “low polyreactivity”.
